# B1: 3B04: parental mouse anti-membrane LIGHT antibody, VL SEQ ID NO 1, VH SEQ ID NO 5; tested as chimeric human IgG4 mAb (antibody, listed as Homo sapiens, V domains shown)
# VH: QVQLQQPGAELVRPGASVTLSCKASGYTFTDYEMHWVKQTPVHGLEWIGEIDPETGDTAYSQKFKGKATLTADKSSSTAYMEFRSLTSEDSAVYYCSRETDYFFDYWGQGTTLTVSS
# VL: DIQMTQTPASLSASVGETVTITCGASENIYGALNWYQRKQGKSPQLLIYGATNLADGMSSRFSGSGSGRQYSLKISSLHPDDFATYYCQNVLTTPWTFGGGTKLEIKR
# B2: 3D12: parental mouse anti-membrane LIGHT antibody, VL SEQ ID NO 41, VH SEQ ID NO 45; tested as chimeric human IgG4 mAb (antibody, listed as Homo sapiens, V domains shown)
# VH: QVQLQQPGAELVRPGASVTLSCKASDYTFTDSEIHWVKQTPVHGLEWIGEIDPETGGTAYNQKFKGKATLTADKSSSTAYMELRSLTSEDSAVYYCSRETDYFFDYWGQGTTLTVSS
# VL: DIQMTQSPASLSASVGETVTITCGASENIYGALNWYQRKQGKSPQLLIYGATNLADGMSSRFSGSGSGRQYSLKISSLHPDDVATYYCQNVLSTPWTFGGGTKLEIKR
# What was measured:
# [1] = target: T1, soluble LIGHT amino acids 64-240 (Homo sapiens, UniProt O43557); experiment: BIAcore (SPR) binding to soluble LIGHT 64-240
# T1 construct: 64-240 LIGHT (Abcam, ab82123); purchased Abcam ab82123
# T1 sequence (O43557 64-240): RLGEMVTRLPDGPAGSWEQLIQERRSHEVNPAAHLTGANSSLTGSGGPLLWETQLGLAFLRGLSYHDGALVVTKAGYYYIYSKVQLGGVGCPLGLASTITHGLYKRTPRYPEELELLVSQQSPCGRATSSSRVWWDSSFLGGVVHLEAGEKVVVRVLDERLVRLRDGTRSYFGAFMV
# Procedure: Real-time binding interactions between captured antibody (chimeric anti-membrane LIGHT monoclonal antibody) captured on a biosensor matrix via goat anti-human Fc IgG and recombinant soluble LIGHT were measured by surface plasmon resonance (SPR) using the BIAcore system (GE Healthcare) according to manufacturer's instructions and standard procedures. Briefly, soluble LIGHT was diluted in HBS running buffer (GE Healthcare) and aliquots were injected through the immobilized protein matrices at a flow rate of […]. BIAevaluation software was used to calculate association rate (ka), dissociation rate (kd) and affinity (KD).
# The specificity of two lead anti-membrane LIGHT mAbs to soluble LIGHT was determined by BIAcore analysis and compared to the KD calculated from the EC50 values in Table 7 (results in Table 9). In brief, mAbs 3D12, 3B04 were compared to a mAb that binds both soluble and membrane LIGHT, F19, (F19 IgG4 mAb from EP2292663). An irrelevant anti-HEL mAb, 2A11, was used as a negative control. The mAbs were captured on an anti-human Fc mAb coated chip and soluble LIGHT was passed over the surface and the kinetic parameters were calculated using BIAcore 3000 software. The soluble LIGHT preparations used were amino acids 74-240 LIGHT (R&D Systems, 664-LI-025) and 64-240 LIGHT (Abcam, ab82123).
# [2] = target: T2, membrane LIGHT stably expressed on EL4 cells (Homo sapiens, UniProt O43557); experiment: Binding ratio of mAbs bound to membrane LIGHT by flow cytometry (EL4 cells); conditions: FIG. 7
# T2 construct: expressed in transfected cells; host or cells: EL4 mouse lymphoma cells, stably transduced (Cheung et al. J. Immunol. 2009)
# T2 sequence (O43557 whole entry): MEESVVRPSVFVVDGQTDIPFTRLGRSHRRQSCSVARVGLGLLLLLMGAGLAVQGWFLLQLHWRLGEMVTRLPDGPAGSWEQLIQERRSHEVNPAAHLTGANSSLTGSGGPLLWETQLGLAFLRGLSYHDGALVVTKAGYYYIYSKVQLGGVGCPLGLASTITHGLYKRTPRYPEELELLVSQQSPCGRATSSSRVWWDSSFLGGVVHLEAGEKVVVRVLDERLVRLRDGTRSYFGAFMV
# Procedure: Stably transduced LIGHT expressing EL4 cells (mouse lymphoma cell line; EL4-LIGHT; Cheung et al. J. Immunol. 2009; 183:7286-7296) were used for the flow cytometry-based binding analysis. EL4-LIGHT cells (0.25×10^6 per well) that had been washed in were incubated with anti-LIGHT IgG4 clones (0.002-100 nM) for 30 min at 4° C. The cells were washed and anti-human IgG-APC conjugate (diluted 1:500, Biolegend cat. No. 409306) was used for detecting anti-LIGHT IgG bound on EL4-LIGHT cells.
# FIG. 7 depicts the flow cytometry analysis of the anti-membrane LIGHT mAbs (3B04 and 3D12) binding to LIGHT stably expressed on EL4 cells. The maximum signal of the IgG4 mAbs 3B04 and 3D12 binding to membrane LIGHT is approximately 40000 MFI. In contrast anti-LIGHT mAbs F19 and F23 (IgG4 mAbs from EP2292663) gave a maximal signal of approximately 120000 MFI. The ratio of binding of mAb F19 and mAb F23 is approximately 3 times that of the anti-membrane LIGHT mAbs 3B04 and 3D12. […] Other mAbs of this invention; 2E08, 3A07, 3C10, 3E09 and 2B11 also bind LIGHT in a 1:1 ratio when compared to mAbs F19 and F23 by flow cytometry.
# LIGHT protein = target: T3, LIGHT protein (Homo sapiens, UniProt O43557, K214E); experiment: Hydrogen-deuterium exchange (HDX) mass spectrometry epitope mapping; format: binding; set-up: Difference uptake (3B04-control) / Uptake 3B04: unit not given here; conditions: for Uptake 3B04: average deuterium uptake n = 3
# T3 construct: amino acids 74-240 LIGHT (R&D Systems, 664-LI-025); purchased R&D Systems 664-LI-025
# T3 sequence (O43557 74-240 K214E): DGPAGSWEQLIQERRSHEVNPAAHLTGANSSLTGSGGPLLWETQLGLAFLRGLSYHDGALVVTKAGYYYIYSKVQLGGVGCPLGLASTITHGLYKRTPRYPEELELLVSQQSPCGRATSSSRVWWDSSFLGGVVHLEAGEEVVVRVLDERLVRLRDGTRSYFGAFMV
# Procedure: The LIGHT protein (R&D Systems 664-LI-025) was solubilised in PBS buffer at a final concentration of 8 μM, whereas the antibodies were maintained at 20 μM in PBS. For complex formation the LIGHT protein was incubated with each antibody separately in 1:5 ratio on ice and HDX measurements were performed 30 min after incubation. All data were recorded on a waters Synapt G2Si equipped with a HDX platform. […] […] Subsequently each sample was quenched with 50 μL of 2M guanidinium chloride in at pH 2. The samples were passed through a pepsin column for 5 min to digest the protein and peptides were separated using a reverse phase chromatography. Data were analysed with DynamX software. Peptides were selected with a maximum length of 15 amino acids and a 5 ppm mass accuracy error. […] The analysis was repeated 3 times for each mAb.
# HDX was used as a starting point to identify the epitope of antibody 3B04 binding to the LIGHT protein. A sequence coverage of 69.2% of the LIGHT protein was achieved and the regions that were not observed were due to the presence of a […] and glycosylation. The glycans were not removed from LIGHT in order to preserve the structure of the protein in a native state. […] (Difference in uptake between 3B04 and control mAb, Table 16, values in bold). […] The results from HDX spectrometry were used as a guide to identify a region of interest that was subsequently analysed using alanine scanning.
# [3] = LIGHT peptide 194-202 SRVWWDSSF, Exposure (sec) 0.33
# [4] = LIGHT peptide 194-202 SRVWWDSSF, Exposure (sec) 1.00
# [5] = LIGHT peptide 194-202 SRVWWDSSF, Exposure (sec) 5.00
# [6] = LIGHT peptide 194-202 SRVWWDSSF, Exposure (sec) 30.00
# [7] = LIGHT peptide 195-202 RVWWDSSF, Exposure (sec) 0.33
# [8] = LIGHT peptide 195-202 RVWWDSSF, Exposure (sec) 1.00
# [9] = LIGHT peptide 195-202 RVWWDSSF, Exposure (sec) 5.00
# [10] = LIGHT peptide 195-202 RVWWDSSF, Exposure (sec) 30.00
# [11] = LIGHT peptide 197-202 WWDSSF, Exposure (sec) 0.33
# [12] = LIGHT peptide 197-202 WWDSSF, Exposure (sec) 1.00
# [13] = LIGHT peptide 197-202 WWDSSF, Exposure (sec) 5.00
# [14] = LIGHT peptide 197-202 WWDSSF, Exposure (sec) 30.00
# [15] = LIGHT peptide 203-209 LGGVVHL, Exposure (sec) 0.33
# [16] = LIGHT peptide 203-209 LGGVVHL, Exposure (sec) 1.00
# [17] = LIGHT peptide 203-209 LGGVVHL, Exposure (sec) 5.00
# [18] = LIGHT peptide 203-209 LGGVVHL, Exposure (sec) 30.00
# [19] = LIGHT peptide 203-214 LGGVVHLEAGEE, Exposure (sec) 0.33
# [20] = LIGHT peptide 203-214 LGGVVHLEAGEE, Exposure (sec) 1.00
# [21] = LIGHT peptide 203-214 LGGVVHLEAGEE, Exposure (sec) 5.00
# [22] = LIGHT peptide 203-214 LGGVVHLEAGEE, Exposure (sec) 30.00
molecule,measurement,setting,value
B1,64-240 LIGHT Ka,[1],251000 M⁻¹ s⁻¹
same,64-240 LIGHT Kd,[1],0.00345 s⁻¹
same,Maximum signal of binding to membrane LIGHT,[2],approximately 40000 MFI
same,Difference uptake (3B04-control),LIGHT protein; [3],−0.296
same,Uptake 3B04,LIGHT protein; [3],0.744
same,Difference uptake (3B04-control),LIGHT protein; [4],−0.443
same,Uptake 3B04,LIGHT protein; [4],0.885
same,Difference uptake (3B04-control),LIGHT protein; [5],−0.405
same,Uptake 3B04,LIGHT protein; [5],1.159
same,Difference uptake (3B04-control),LIGHT protein; [6],−0.656
same,Uptake 3B04,LIGHT protein; [6],1.392
same,Difference uptake (3B04-control),LIGHT protein; [7],−0.254
same,Uptake 3B04,LIGHT protein; [7],0.393
same,Difference uptake (3B04-control),LIGHT protein; [8],−0.399
same,Uptake 3B04,LIGHT protein; [8],0.480
same,Difference uptake (3B04-control),LIGHT protein; [9],−0.474
same,Uptake 3B04,LIGHT protein; [9],0.631
same,Difference uptake (3B04-control),LIGHT protein; [10],−0.756
same,Uptake 3B04,LIGHT protein; [10],0.805
same,Difference uptake (3B04-control),LIGHT protein; [11],−0.187
same,Uptake 3B04,LIGHT protein; [11],0.240
same,Difference uptake (3B04-control),LIGHT protein; [12],−0.269
same,Uptake 3B04,LIGHT protein; [12],0.336
same,Difference uptake (3B04-control),LIGHT protein; [13],−0.217
same,Uptake 3B04,LIGHT protein; [13],0.501
same,Difference uptake (3B04-control),LIGHT protein; [14],−0.252
same,Uptake 3B04,LIGHT protein; [14],0.603
same,Difference uptake (3B04-control),LIGHT protein; [15],−0.029
same,Uptake 3B04,LIGHT protein; [15],0.145
same,Difference uptake (3B04-control),LIGHT protein; [16],−0.027
same,Uptake 3B04,LIGHT protein; [16],0.147
same,Difference uptake (3B04-control),LIGHT protein; [17],−0.014
same,Uptake 3B04,LIGHT protein; [17],0.237
same,Difference uptake (3B04-control),LIGHT protein; [18],−0.052
same,Uptake 3B04,LIGHT protein; [18],0.384
same,Difference uptake (3B04-control),LIGHT protein; [19],−0.050
same,Uptake 3B04,LIGHT protein; [19],0.202
same,Difference uptake (3B04-control),LIGHT protein; [20],−0.033
same,Uptake 3B04,LIGHT protein; [20],0.266
same,Difference uptake (3B04-control),LIGHT protein; [21],−0.087
same,Uptake 3B04,LIGHT protein; [21],0.399
same,Difference uptake (3B04-control),LIGHT protein; [22],−0.081
same,Uptake 3B04,LIGHT protein; [22],0.807
same,Epitope defined by HDX,LIGHT protein; soluble LIGHT,residues 195-197 of soluble LIGHT
B2,64-240 LIGHT Ka,[1],219000 M⁻¹ s⁻¹
same,64-240 LIGHT Kd,[1],0.00234 s⁻¹
same,Maximum signal of binding to membrane LIGHT,[2],approximately 40000 MFI

# Reference: US11312781B2, “Antigen binding molecules that bind LIGHT” (Capella Bioscience Ltd., priority 2018, dated 2022)
